Data from patent publication EP4667491A1.

Target: human CNTN4 expressed on the cell surface (human) (UniProt Q8IWV2)
Experiment: flow cytometry; IgG on human CNTN4-overexpressing HEK293 cells

Sequence of human CNTN4 expressed on the cell surface (human) (Q8IWV2 19-1000): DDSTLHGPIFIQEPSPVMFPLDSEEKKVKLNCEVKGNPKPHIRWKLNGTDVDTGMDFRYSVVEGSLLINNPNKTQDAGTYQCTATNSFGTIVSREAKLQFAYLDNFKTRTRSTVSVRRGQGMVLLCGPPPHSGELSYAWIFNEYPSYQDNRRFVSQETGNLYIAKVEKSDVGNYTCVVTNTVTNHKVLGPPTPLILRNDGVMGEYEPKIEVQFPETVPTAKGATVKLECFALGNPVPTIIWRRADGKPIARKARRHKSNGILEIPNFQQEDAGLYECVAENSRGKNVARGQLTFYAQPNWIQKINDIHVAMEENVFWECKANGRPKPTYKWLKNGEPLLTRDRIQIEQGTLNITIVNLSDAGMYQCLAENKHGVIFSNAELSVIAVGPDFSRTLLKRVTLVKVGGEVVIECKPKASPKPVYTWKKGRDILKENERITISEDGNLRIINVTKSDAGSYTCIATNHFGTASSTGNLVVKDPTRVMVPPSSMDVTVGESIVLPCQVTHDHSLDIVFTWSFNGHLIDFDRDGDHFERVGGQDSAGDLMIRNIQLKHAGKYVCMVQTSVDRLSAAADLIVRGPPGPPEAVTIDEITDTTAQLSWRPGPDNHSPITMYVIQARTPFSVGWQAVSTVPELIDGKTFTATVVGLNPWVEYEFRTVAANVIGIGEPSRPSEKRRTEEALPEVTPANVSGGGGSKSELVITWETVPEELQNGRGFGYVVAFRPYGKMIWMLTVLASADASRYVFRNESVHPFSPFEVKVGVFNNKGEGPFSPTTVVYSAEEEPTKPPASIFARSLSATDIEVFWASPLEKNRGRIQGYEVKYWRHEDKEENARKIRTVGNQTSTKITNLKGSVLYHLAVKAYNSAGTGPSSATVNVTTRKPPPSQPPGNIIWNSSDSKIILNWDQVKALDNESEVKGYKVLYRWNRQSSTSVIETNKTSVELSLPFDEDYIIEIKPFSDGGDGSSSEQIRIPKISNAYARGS

Top MFI: 13 MFI
Substance: human IgG4 antibody (negative control)
